Target: SMARCB1 (aa 169–385) (human, UniProt Q12824 169-385)
Assay: ITC; second site (Kd2, two-site model)

Chain of SMARCB1 (aa 169–385) (Q12824 169-385): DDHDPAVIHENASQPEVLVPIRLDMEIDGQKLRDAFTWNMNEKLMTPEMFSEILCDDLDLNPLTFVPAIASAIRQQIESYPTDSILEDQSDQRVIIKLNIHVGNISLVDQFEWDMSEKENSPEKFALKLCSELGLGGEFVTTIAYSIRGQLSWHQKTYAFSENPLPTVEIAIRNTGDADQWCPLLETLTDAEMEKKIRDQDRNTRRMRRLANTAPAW

B1: SMARCC2 (aa 325–518) (domain or fragment)
chain: TKSKRGHREEEQEDLTKDMDEPSPVPNVEEVTLPKTVNTKKDSESAPVKGGTMTDLDEQEDESMETTGKDEDENSTGNKGEQTKNPDLHEDNVTEQTHHIIIPSYAAWFDYNSVHAIERRALPEFFNGKNKSKTPEIYLAYRNFMIDTYRLNPQEYLTSTACRRNLAGDVCAIMRVHAFLEQWGLINYQVDAES
**Q.** For B1, which Kd is on record?
**A.** The Kd was 1.96 nM.
